In publication PMC3125984 (Journal of molecular biology, 2011):
Like-named read-outs stand apart in the source and are kept apart here.

Columns and labels:
[1] = target: T1, Mss116 core (Ser73-Tyr597) (Saccharomyces cerevisiae, UniProt P15424 73-597); experiment: FCS
T1 sequence: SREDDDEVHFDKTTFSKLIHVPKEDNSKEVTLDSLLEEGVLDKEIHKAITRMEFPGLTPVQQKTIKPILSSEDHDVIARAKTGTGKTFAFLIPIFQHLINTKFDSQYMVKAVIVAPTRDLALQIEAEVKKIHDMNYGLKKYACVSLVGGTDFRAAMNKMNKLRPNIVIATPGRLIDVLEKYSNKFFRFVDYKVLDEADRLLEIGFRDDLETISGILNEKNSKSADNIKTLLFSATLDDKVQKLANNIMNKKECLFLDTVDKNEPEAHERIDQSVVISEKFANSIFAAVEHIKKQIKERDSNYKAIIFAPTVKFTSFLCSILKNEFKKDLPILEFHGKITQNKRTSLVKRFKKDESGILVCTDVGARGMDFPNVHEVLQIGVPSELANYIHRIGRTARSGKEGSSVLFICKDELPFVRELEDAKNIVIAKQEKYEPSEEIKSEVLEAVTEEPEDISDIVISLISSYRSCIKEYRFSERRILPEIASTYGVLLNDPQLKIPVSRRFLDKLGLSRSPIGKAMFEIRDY

[2] = target: T1, Mss116 core (Ser73-Tyr597); experiment: FCS; remark: listed apart in the source
[3] = target: the molecule itself; experiment: fluorescence correlation spectroscopy

GCCUCGCUGCCCUUCGGGGCAGCGAGGC (structured_RNA) [28-mer hairpin RNA]
Kd [1]: 117 ± 21 nM
Kd [2]: 122 ± 22 nM

B1: Mss116 (truncated construct, Ser73 - Tyr597) (domain or fragment, Saccharomyces cerevisiae, UniProt P15424 73-597, looked up)
chain: T1 sequence
binding result [3]: binds
